The values that follow come from PMC6317994 (Cell reports, 2018).

The test addresses T1, Flag-tagged N-terminal domain of TET2 (residues 1–1127) (human, UniProt Q6N021 1-1127).
T1 sequence: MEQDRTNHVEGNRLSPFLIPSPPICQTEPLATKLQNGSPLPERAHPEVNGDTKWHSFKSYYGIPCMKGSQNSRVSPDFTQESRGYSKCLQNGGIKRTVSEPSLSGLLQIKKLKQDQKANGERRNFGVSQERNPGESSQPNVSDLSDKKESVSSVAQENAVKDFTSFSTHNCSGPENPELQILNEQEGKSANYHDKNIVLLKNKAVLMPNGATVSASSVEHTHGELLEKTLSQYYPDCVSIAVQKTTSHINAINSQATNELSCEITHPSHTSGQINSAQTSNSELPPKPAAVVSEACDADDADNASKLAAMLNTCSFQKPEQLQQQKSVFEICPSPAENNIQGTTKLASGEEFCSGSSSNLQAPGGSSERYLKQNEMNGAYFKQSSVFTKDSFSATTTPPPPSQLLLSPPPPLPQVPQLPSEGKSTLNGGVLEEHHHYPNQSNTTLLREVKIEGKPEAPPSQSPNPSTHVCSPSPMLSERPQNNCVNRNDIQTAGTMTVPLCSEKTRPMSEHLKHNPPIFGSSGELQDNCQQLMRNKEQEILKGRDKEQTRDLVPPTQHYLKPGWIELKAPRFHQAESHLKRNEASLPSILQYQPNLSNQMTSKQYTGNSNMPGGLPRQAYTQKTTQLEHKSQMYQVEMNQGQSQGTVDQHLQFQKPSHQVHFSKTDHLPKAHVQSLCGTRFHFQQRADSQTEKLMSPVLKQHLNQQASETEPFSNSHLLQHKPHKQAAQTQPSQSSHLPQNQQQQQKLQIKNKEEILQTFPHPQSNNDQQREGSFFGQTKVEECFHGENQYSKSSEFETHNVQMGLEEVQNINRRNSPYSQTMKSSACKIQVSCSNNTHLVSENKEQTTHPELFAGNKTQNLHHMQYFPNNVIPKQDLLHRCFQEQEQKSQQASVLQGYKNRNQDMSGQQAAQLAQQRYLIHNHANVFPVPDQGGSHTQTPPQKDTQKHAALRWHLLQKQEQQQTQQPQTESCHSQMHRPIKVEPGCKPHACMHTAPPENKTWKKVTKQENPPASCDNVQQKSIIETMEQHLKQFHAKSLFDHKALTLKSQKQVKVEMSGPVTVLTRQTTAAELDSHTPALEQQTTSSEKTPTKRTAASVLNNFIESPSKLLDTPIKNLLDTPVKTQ
The test can be described thus: pull-down.

B1: SNIP1 purified from E. coli (GST tag removed) (natural protein)
chain: MKAVKSERERGSRRRHRDGDVVLPAGVVVKQERLSPEVAPPAHRRPDHSGGSPSPPTSEPARSGHRGNRARGVSRSPPKKKNKASGRRSKSPRSKRNRSPHHSTVKVKQEREDHPRRGREDRQHREPSEQEHRRARNSDRDRHRGHSHQRRTSNERPGSGQGQGRDRDTQNLQAQEEEREFYNARRREHRQRNDVGGGGSESQELVPRPGGNNKEKEVPAKEKPSFELSGALLEDTNTFRGVVIKYSEPPEARIPKKRWRLYPFKNDEVLPVMYIHRQSAYLLGRHRRIADIPIDHPSCSKQHAVFQYRLVEYTRADGTVGRRVKPYIIDLGSGNGTFLNNKRIEPQRYYELKEKDVLKFGFSSREYVLLHESSDTSEIDRKDDEDEEEEEEVSDS
Consider B1, for which the binding result is recorded as “binds”.
